These results are taken from paper PMC8480326, “Chemoenzymatic glycan-selective remodeling of a therapeutic lysosomal enzyme with high-affinity M6P-glycan ligands. Enzyme substrate specificity is the name of the game” (Chemical Science, 2021).

The series in a line: observation during stepwise remodeling. To be noted: glycan lost; control: commercial rhGAA.

In the case of “recombinant human acid α-glucosidase (rhGAA, Lumizyme): Endo-F3 deglycosylation”, the stability_or_folding entry is recorded as “decreases”.
